Key:
[1] = molecular target: T1, recombinant cynomolgus (cyno) complement C2 (XP_005553508.1), C-terminal 6His-tag, made in house (CHO cell … (cynomolgus monkey (Macaca fascicularis), UniProt P06681 21-752 (human entry))); assay: ELISA on cyno C2, OD450nm against log Ab conc. (nmol/L)
T1 construct: also called cyno C2; Cyno C2
T1 chain: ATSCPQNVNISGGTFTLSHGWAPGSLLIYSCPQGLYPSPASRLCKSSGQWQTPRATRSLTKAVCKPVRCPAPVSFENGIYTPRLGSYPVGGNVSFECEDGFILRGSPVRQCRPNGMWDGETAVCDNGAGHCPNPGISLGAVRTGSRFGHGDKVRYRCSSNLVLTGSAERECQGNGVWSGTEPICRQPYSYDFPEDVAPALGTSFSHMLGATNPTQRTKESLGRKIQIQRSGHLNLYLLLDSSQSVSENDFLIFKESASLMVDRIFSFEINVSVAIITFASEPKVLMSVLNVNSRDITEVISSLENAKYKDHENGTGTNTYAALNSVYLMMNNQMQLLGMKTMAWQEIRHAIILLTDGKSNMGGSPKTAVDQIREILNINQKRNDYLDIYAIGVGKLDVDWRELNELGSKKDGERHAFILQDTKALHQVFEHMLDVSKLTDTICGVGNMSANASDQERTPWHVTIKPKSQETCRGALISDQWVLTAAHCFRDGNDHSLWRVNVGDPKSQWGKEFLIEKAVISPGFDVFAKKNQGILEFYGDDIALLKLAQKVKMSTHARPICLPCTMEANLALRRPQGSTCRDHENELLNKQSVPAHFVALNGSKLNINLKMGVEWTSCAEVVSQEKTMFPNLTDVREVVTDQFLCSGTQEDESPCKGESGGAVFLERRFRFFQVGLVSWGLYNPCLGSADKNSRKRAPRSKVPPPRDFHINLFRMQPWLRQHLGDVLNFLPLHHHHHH

[2] = molecular target: T2, recombinant human complement C2 (NP_000054.2), C-terminal 6His-tag, made in house (CHO cell expression) (human, UniProt P06681 21-752); assay: ELISA
T2 construct: a linker before the tag is not described; also called human C2; Human C2
T2 sequence: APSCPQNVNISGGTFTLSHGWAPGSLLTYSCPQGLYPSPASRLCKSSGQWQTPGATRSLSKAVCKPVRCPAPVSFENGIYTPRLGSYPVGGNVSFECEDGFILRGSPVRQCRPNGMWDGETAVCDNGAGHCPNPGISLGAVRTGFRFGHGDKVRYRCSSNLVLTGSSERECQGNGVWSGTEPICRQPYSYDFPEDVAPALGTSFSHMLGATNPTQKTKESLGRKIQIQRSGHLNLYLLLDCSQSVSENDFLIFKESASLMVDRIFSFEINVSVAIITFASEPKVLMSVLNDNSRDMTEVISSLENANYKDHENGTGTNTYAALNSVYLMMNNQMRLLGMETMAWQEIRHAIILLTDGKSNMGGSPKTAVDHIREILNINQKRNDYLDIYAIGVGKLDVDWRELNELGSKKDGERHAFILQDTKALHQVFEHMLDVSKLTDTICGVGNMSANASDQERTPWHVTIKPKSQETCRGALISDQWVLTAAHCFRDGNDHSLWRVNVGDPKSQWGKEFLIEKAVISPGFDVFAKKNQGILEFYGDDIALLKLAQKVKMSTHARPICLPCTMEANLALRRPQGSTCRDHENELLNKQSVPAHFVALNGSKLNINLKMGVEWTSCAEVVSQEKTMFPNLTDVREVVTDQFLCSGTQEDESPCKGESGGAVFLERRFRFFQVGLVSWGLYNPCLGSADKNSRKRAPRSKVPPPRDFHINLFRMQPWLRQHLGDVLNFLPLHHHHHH

[3] = molecular target: T3, recombinant human C2a, C-terminal 6His-tag, made in house (CHO cell expression) (human, UniProt P06681 244-752); assay: ELISA
T3 sequence: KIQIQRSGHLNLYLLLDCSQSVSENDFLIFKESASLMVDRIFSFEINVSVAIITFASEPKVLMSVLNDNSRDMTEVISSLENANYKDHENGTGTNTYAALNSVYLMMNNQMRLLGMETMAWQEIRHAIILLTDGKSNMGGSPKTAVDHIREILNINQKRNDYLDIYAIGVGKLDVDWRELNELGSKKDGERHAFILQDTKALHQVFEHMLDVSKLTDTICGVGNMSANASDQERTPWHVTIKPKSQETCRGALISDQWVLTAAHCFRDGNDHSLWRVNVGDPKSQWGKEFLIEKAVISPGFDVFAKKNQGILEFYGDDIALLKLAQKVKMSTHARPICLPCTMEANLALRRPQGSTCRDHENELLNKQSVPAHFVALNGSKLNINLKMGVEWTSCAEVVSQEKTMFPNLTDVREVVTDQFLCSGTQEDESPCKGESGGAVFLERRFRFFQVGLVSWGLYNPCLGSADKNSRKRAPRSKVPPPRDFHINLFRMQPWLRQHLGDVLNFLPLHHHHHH

[4] = molecular target: T4, recombinant cyno C2a, C-terminal 6His-tag, made in house (CHO cell expression) (cynomolgus monkey, UniProt P06681 244-752 (human entry)); assay: ELISA
T4 chain: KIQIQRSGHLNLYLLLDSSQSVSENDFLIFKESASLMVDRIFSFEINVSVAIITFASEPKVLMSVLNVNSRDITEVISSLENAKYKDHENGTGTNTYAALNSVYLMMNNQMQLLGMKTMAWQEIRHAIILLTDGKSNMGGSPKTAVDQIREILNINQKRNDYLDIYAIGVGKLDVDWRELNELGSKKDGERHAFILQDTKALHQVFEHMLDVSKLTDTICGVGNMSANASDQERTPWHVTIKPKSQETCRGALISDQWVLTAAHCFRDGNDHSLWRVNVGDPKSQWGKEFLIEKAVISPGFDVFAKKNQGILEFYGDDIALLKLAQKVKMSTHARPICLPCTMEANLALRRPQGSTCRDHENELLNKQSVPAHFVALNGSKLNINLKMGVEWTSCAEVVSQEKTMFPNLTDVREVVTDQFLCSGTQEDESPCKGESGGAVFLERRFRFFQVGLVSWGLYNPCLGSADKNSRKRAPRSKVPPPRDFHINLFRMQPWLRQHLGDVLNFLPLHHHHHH

binding result [1]: binds | EC50 [2]: 0.165 nM | EC50 [3]: 0.0457 nM | EC50 [4]: 0.042 nM
B1: anti-C2 antibody 149.46 (antibody, IgG4, V domains shown)
VH: QVQLQQSGPGLVKPSQPLSLTCAISGDSVSSNSATWSWIRQSPSRGLEWLGRTYYRSKWYHDYAVFVKSRMTINPDTSKNQFSLQLNSVTPEDTAVYYCARGGMPASDIPHFDNWGQGILVTVSS
VL: SYELTQPPSLSVSPGQTASITCSGHKLGDKYACWYQQKPGQSPVLVIYQDNKRPSGIPERFSGSNSGNTATLTISGTQALDEADYYCQAWDSITYVFGTGTKVTVL
notes: Recombinant

Source: patent US20250376539A1 (KIRA PHARMACEUTICALS SUZHOU, published 2025)
